Laboratory results: PMC4766014, “Structures of Two Melanoma-Associated Antigens Suggest Allosteric Regulation of Effector Binding” (PLoS ONE, 2016)

Target: the molecule itself
Assay: AUC; sedimentation velocity, 4°C, 45,000 rpm, 10 mM HEPES pH 7.5, 150 mM NaCl, 0.5 mM TCEP; MAGE-A3 at 0.75 mg/ml, MAGE-A4 at 0.5 mg/ml; c(s) analysis with SEDFIT

| Protein | stoichiometry N |
| --- | --- |
| MAGE-A3 MHD domain, residues 104-314 (domain or fragment, human, UniProt P43357 104-314, looked up, MAGE-A3, human, MAGE homology domain (MHD), residues 104-314; Dimer in solution by AUC and SAXS (dimer B interface); The final 4 residues are disordered in the crystal structure; also called MAGE-A3^104-314; melanoma associated antigen A3) EFQAALSRKVAELVHFLLLKYRAREPVTKAEMLGSVVGNWQYFFPVIFSKASSSLQLVFGIELMEVDPIGHLYIFATCLGLSYDGLLGDNQIMPKAGLLIIVLAIIAREGDCAPEEKIWEELSVLEVFEGREDSILGDPKKLLTQHFVQENYLEYRQVPGSDPACYEFLWGPRALVETSYVKVLHHMVKISGGPHISYPPLHEWVLREGEE | 2 |
| MAGE-A3 C-terminally truncated construct, residues 104-294 (domain or fragment, human, UniProt P43357 104-294, looked up, MAGE-A3, human, residues 104-294 (lacks the final 20 residues of the crystallized construct); also called MAGE-A3^104-294) EFQAALSRKVAELVHFLLLKYRAREPVTKAEMLGSVVGNWQYFFPVIFSKASSSLQLVFGIELMEVDPIGHLYIFATCLGLSYDGLLGDNQIMPKAGLLIIVLAIIAREGDCAPEEKIWEELSVLEVFEGREDSILGDPKKLLTQHFVQENYLEYRQVPGSDPACYEFLWGPRALVETSYVKVLHHMVKIS | 2 |
